Experimental data reported in the supplement of paper PMC9732359.
± gives the uncertainty stated by the source.

Assay: protein stability index of a GFP-peptide fusion (yeast GPS) (PSI 1-4); higher = more stable; sorted into four equal gates, so the index is relative within each strain
In short: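 Each library plasmid carries Cherry plus GFP with a tiled 17-residue yeast protein peptide fused downstream, and the pooled library was carried in yeast. Mid-log cultures in leucine-free medium were sorted into four equal gates by GFP/Cherry ratio. Reads from Illumina sequencing of PCR-amplified plasmids from each gate were assigned to strains by barcodes. Per peptide, the protein stability index was computed as the summed products of gate read frequency and gate number.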

Sequence	protein stability index (doa10∆)	protein stability index (pdr5∆)	protein stability index (san1∆)	protein stability index (ubr1∆)
TQTGQNTGPSTGGLFGA [YGL172W/NUP49]	3.47 ± 0.11	3.34 ± 0.094	2.93 ± 0.14	3.52 ± 0.13
TRAAKIAPRPLDLLRPV [RPL13A]	2.95 ± 0.091	3.27 ± 0.11	3.15 ± 0.081	2.89 ± 0.054
TRAKIGGLNDPRLGSID [RPO21]	3.03 ± 0.11	2.22 ± 0.077	2.58 ± 0.098	2.37 ± 0.083
TRALQISMNAPVFVDLE [RPO26]	–	–	–	3 ± 0.19
TRGGASALIENNLFRII [YJL039C/NUP192]	2.48 ± 0.048	2.41 ± 0.052	2.41 ± 0.052	2.7 ± 0.041
TRISSQFEKSRKVSGPR [RET1]	2.94 ± 0.27	2.92 ± 0.18	2.92 ± 0.098	2.75 ± 0.2
TRLPAFERPAVKEEKED [RPC53]	2.87 ± 0.25	2.71 ± 0.23	3.21 ± 0.085	3.46 ± 0.16
TRNPDAPKGSTDPKELY [RPC40]	3.11 ± 0.23	3.63 ± 0.29	–	3.48 ± 0.16
TRQASDLASSKEVLAKI [RPN5]	2.92 ± 0.11	2.96 ± 0.06	2.99 ± 0.077	2.85 ± 0.076
TRVNAQLESYEYMVQYI [RRI1]	3.2 ± 0.059	3.23 ± 0.073	3.42 ± 0.058	3.22 ± 0.076
TSDPVMHKQLAYILAAQ [RPN1]	1.68 ± 0.15	2.52 ± 0.17	–	2.1 ± 0.11
TSFDIKREGRNELQEER [POP6]	3.46 ± 0.12	3.02 ± 0.15	3.73 ± 0.11	3.27 ± 0.07
TSIEKSSEILSYLSNSL [YML103C/NUP188]	2.21 ± 0.072	2.57 ± 0.076	1.49 ± 0.1	2.14 ± 0.046
TSLITAVYGPRSIRGSF [MTR3]	2.72 ± 0.073	2.72 ± 0.086	2.55 ± 0.074	2.28 ± 0.058
TSLSSKDLSNYRKTEGI [YMR153W/NUP53]	3.12 ± 0.088	3.25 ± 0.085	3.24 ± 0.062	3.35 ± 0.043
TSLTSIKWENAFVSVYS [PRP8]	2.94 ± 0.07	2.62 ± 0.07	3 ± 0.08	2.67 ± 0.038
TSPFGGARPGRVARRNA [RPS9A]	2.8 ± 0.15	2.84 ± 0.28	3.02 ± 0.15	3.28 ± 0.1
TSPIDIREKVAKQALDL [SNF2]	3.28 ± 0.14	3.17 ± 0.19	2.81 ± 0.13	2.69 ± 0.15
TSQMDLARDTPSANNSS [RRP4]	1.86 ± 0.042	1.46 ± 0.064	1.91 ± 0.077	1.51 ± 0.045
TSQNPQRDAEISQPKSM [BRR2]	3.27 ± 0.11	3.04 ± 0.27	3.11 ± 0.13	2.88 ± 0.11
TSRTIVRNVKGPVREND [RPS28A]	3.4 ± 0.11	3.16 ± 0.1	3.59 ± 0.11	3.27 ± 0.086
TTALLKDEEIEKLLQQD [MED8]	3.29 ± 0.13	3.13 ± 0.13	3.05 ± 0.23	3.59 ± 0.14
TTAVEDEDDDLDEDDVN [RPB4]	3.5 ± 0.11	3.27 ± 0.1	3.55 ± 0.15	3.3 ± 0.093
TTDANGSKENYQELGSL [MED2]	2.86 ± 0.097	3.09 ± 0.081	3.15 ± 0.049	2.9 ± 0.075
TTDSLTKVLQADLPGSY [YMR129W/POM152]	2.38 ± 0.082	2.79 ± 0.14	2.49 ± 0.1	2.43 ± 0.078
TTEMLDKLMVTSIRSTP [MED6]	2.27 ± 0.14	2.45 ± 0.12	2.81 ± 0.27	2.53 ± 0.089
TTIFVKSTTPYVSALKR [POP7]	1.82 ± 0.07	2.27 ± 0.077	2.27 ± 0.076	1.97 ± 0.056

Sequence	protein stability index (doa10∆)	protein stability index (pdr5∆)	protein stability index (san1∆)	protein stability index (ubr1∆)
TTLHGPGFQLPNRITLT [SRB8]	2.9 ± 0.099	2.84 ± 0.1	2.74 ± 0.068	2.89 ± 0.061
TTSRFSKQVTDYYQSIY [FAS2]	2.77 ± 0.056	2.87 ± 0.071	2.47 ± 0.089	2.59 ± 0.05
TTTNTDQNNATMGEETA [SNF12]	3.3 ± 0.076	3.37 ± 0.11	3.4 ± 0.076	3.21 ± 0.1
TTVIGIRGSDQAIPKFQ [RPN2]	–	2.74 ± 0.23	–	–
TTVSNDLENSPLKTELE [SSN2]	3.05 ± 0.13	3.16 ± 0.096	3.16 ± 0.072	3.19 ± 0.082
TVAVMSYSGYDIEDALV [RET1]	2.7 ± 0.16	2.15 ± 0.11	1.97 ± 0.16	2.83 ± 0.072
TVDVSSPTENGVFDPAS [RPL22A]	3.06 ± 0.054	3.17 ± 0.064	2.69 ± 0.057	2.87 ± 0.042
TVHKTFEGNVATKAING [PRP8]	2.85 ± 0.08	2.22 ± 0.062	1.85 ± 0.065	2.71 ± 0.062
TVIEGVKEESQPDENTK [SWI3]	3.13 ± 0.17	3.28 ± 0.15	2.74 ± 0.12	3 ± 0.089
TVIRGNSIISLEALDAI [SMX2]	2.79 ± 0.075	2.43 ± 0.09	2.15 ± 0.11	2.57 ± 0.055
TVLFFIGVRCYEAYPNT [FAS1]	1.21 ± 0.054	1.23 ± 0.049	1.66 ± 0.1	1.8 ± 0.043
TVNHSEKFPNDVKLLNP [RPP1]	2.79 ± 0.05	2.87 ± 0.034	3.08 ± 0.036	3 ± 0.036
TVPRIVQLLSKSHNAHV [RPN2]	1.91 ± 0.056	1.69 ± 0.044	2.08 ± 0.067	1.98 ± 0.048
TVQNEILGDLGKEFGTT [FAS2]	3.03 ± 0.2	2.34 ± 0.25	2.57 ± 0.093	2.9 ± 0.16
TVQYVRFFWKRSTNKKS [UBP6]	1.65 ± 0.054	1.35 ± 0.047	1.2 ± 0.15	1.12 ± 0.04
TVSILQESSSLRLLEVT [POP8]	2.2 ± 0.055	2.38 ± 0.048	2.4 ± 0.083	2.33 ± 0.033
TVTLNKNREVVQVSKAG [RRP45]	2.8 ± 0.092	2.98 ± 0.075	2.76 ± 0.065	2.82 ± 0.065
TVVQVYDNGQVFPSSIL [RPP0]	1.19 ± 0.059	1.29 ± 0.13	–	1.29 ± 0.14
TYLNEVLEKDAAIVKKY [YGR119C/NUP57]	3.27 ± 0.11	3.37 ± 0.093	2.99 ± 0.076	3.08 ± 0.069
TYVEELFPIVKKHGKTD [YJL039C/NUP192]	3.33 ± 0.14	3.44 ± 0.11	3.32 ± 0.12	3.19 ± 0.091
VAATITSSQKEPFFLVT [SRB8]	1.8 ± 0.071	2.17 ± 0.086	2.12 ± 0.083	2.21 ± 0.075
VAIGNTYGFLTPNLWAE [RPS2]	2.26 ± 0.073	2.49 ± 0.054	2.36 ± 0.089	2.43 ± 0.04
VANQTSATFLRIVGSEL [RPT2]	2.45 ± 0.12	2.29 ± 0.096	2.15 ± 0.15	2.13 ± 0.082
VCAKLFGNIQKVVNFWL [RPO21]	2.03 ± 0.098	1.93 ± 0.07	1.95 ± 0.11	1.78 ± 0.074
VDYGGAEWSLVRIYSGL [SNU114]	–	–	–	3.66 ± 0.18
VECTISILRKSSPEEPF [SNF12]	1.27 ± 0.061	1.46 ± 0.064	2.32 ± 0.066	1.14 ± 0.051
VEDGNILVFQVSMKANK [RPL25]	2.58 ± 0.043	2.46 ± 0.047	2.5 ± 0.047	2.69 ± 0.037
